Consider 35 variants from the Human Domainome abundance scans (Beltran et al. 2025).

To fix the notation:
B1: Steroid hormone receptor ERR2, residues 100 to 176; numbered along this chain, O95718 (parent)
chain: KRLCLVCGDIASGYHYGVASCEACKAFFKRTIQGNIEYSCPATNECEITKRRRKSCQACRFMKCLKVGMLKEGVRLD

± gives the uncertainty stated by the source.

In this series the parent is B1. Briefly: abundance fitness (aPCA) (normalised: wild type 0, dead -1); higher = more abundant; growth selection in yeast, the domain comes from the species named. The conditions noted are these: Homo sapiens.
As to KRLCLVCGDIASGYHYGVASCEACKAFFKRTIQGNIEFSCPATNECEITKRRRKSCQACRFMKCLKVGMLKEGVRLD [Y38F], the abundance fitness was -0.037 ± 0.13.
Consider KRLCLVCGDIASGYHYGVASCEACKAFFKRTIQGNIEPSCPATNECEITKRRRKSCQACRFMKCLKVGMLKEGVRLD [Y38P], for which the abundance fitness was -0.547 ± 0.13.
As for KRLCLVCGDIASGYHYGVASCEACKAFFKRTIQGNIETSCPATNECEITKRRRKSCQACRFMKCLKVGMLKEGVRLD [Y38T], the abundance fitness was -0.636 ± 0.13.
The same measure for KRLCLVCGDIASGYHYGVASCEACKAFFKRTIQGNIEQSCPATNECEITKRRRKSCQACRFMKCLKVGMLKEGVRLD [Y38Q]: -0.841 ± 0.16.
In the case of KRLCLVCGDIASGYHYGVASCEACKAFFKRTIQGNIEISCPATNECEITKRRRKSCQACRFMKCLKVGMLKEGVRLD [Y38I], the abundance fitness is -0.421 ± 0.36.
Turning to KRLCLVCGDIASGYHYGVASCEACKAFFKRTIQGNIEWSCPATNECEITKRRRKSCQACRFMKCLKVGMLKEGVRLD [Y38W], the abundance fitness was determined as 0.097 ± 0.047.
With KRLCLVCGDIASGYHYGVASCEACKAFFKRTIQGNIERSCPATNECEITKRRRKSCQACRFMKCLKVGMLKEGVRLD [Y38R] the figure was -0.347 ± 0.049.
The same measure for KRLCLVCGDIASGYHYGVASCEACKAFFKRTIQGNIEMSCPATNECEITKRRRKSCQACRFMKCLKVGMLKEGVRLD [Y38M]: -0.548 ± 0.11; for KRLCLVCGDIASGYHYGVASCEACKAFFKRTIQGNIEGSCPATNECEITKRRRKSCQACRFMKCLKVGMLKEGVRLD [Y38G]: -0.394 ± 0.057.
Turning to KRLCLVCGDIASGYHYGVASCEACKAFFKRTIQGNIELSCPATNECEITKRRRKSCQACRFMKCLKVGMLKEGVRLD [Y38L], the abundance fitness was -0.398 ± 0.061.
Regarding KRLCLVCGDIASGYHYGVASCEACKAFFKRTIQGNIEVSCPATNECEITKRRRKSCQACRFMKCLKVGMLKEGVRLD [Y38V], the abundance fitness was -0.541 ± 0.089.
The same measure for KRLCLVCGDIASGYHYGVASCEACKAFFKRTIQGNIEHSCPATNECEITKRRRKSCQACRFMKCLKVGMLKEGVRLD [Y38H]: -0.196 ± 0.17; for KRLCLVCGDIASGYHYGVASCEACKAFFKRTIQGNIEKSCPATNECEITKRRRKSCQACRFMKCLKVGMLKEGVRLD [Y38K]: -0.725 ± 0.15; for KRLCLVCGDIASGYHYGVASCEACKAFFKRTIQGNIESSCPATNECEITKRRRKSCQACRFMKCLKVGMLKEGVRLD [Y38S]: -0.518 ± 0.08.
KRLCLVCGDIASGYHYGVASCEACKAFFKRTIQGNIEYGCPATNECEITKRRRKSCQACRFMKCLKVGMLKEGVRLD [S39G]: the abundance fitness was determined as 0.19 ± 0.036.
For the variant KRLCLVCGDIASGYHYGVASCEACKAFFKRTIQGNIEYECPATNECEITKRRRKSCQACRFMKCLKVGMLKEGVRLD [S39E], the abundance fitness stood at 0.303 ± 0.043.
With KRLCLVCGDIASGYHYGVASCEACKAFFKRTIQGNIEYLCPATNECEITKRRRKSCQACRFMKCLKVGMLKEGVRLD [S39L] the figure was 0.283 ± 0.038; with KRLCLVCGDIASGYHYGVASCEACKAFFKRTIQGNIEYICPATNECEITKRRRKSCQACRFMKCLKVGMLKEGVRLD [S39I], 0.19 ± 0.086.
With KRLCLVCGDIASGYHYGVASCEACKAFFKRTIQGNIEYYCPATNECEITKRRRKSCQACRFMKCLKVGMLKEGVRLD [S39Y] the figure was 0.283 ± 0.089.
The same measure for KRLCLVCGDIASGYHYGVASCEACKAFFKRTIQGNIEYDCPATNECEITKRRRKSCQACRFMKCLKVGMLKEGVRLD [S39D]: 0.441 ± 0.076; for KRLCLVCGDIASGYHYGVASCEACKAFFKRTIQGNIEYKCPATNECEITKRRRKSCQACRFMKCLKVGMLKEGVRLD [S39K]: 0.305 ± 0.051.
For the variant KRLCLVCGDIASGYHYGVASCEACKAFFKRTIQGNIEYHCPATNECEITKRRRKSCQACRFMKCLKVGMLKEGVRLD [S39H], the abundance fitness is 0.103 ± 0.13.
As to KRLCLVCGDIASGYHYGVASCEACKAFFKRTIQGNIEYNCPATNECEITKRRRKSCQACRFMKCLKVGMLKEGVRLD [S39N], the abundance fitness came out at 0.397 ± 0.1.
The same measure for KRLCLVCGDIASGYHYGVASCEACKAFFKRTIQGNIEYMCPATNECEITKRRRKSCQACRFMKCLKVGMLKEGVRLD [S39M]: 0.39 ± 0.048.
The same measure for KRLCLVCGDIASGYHYGVASCEACKAFFKRTIQGNIEYCCPATNECEITKRRRKSCQACRFMKCLKVGMLKEGVRLD [S39C]: 0.189 ± 0.06; for KRLCLVCGDIASGYHYGVASCEACKAFFKRTIQGNIEYWCPATNECEITKRRRKSCQACRFMKCLKVGMLKEGVRLD [S39W]: 0.22 ± 0.047; for KRLCLVCGDIASGYHYGVASCEACKAFFKRTIQGNIEYTCPATNECEITKRRRKSCQACRFMKCLKVGMLKEGVRLD [S39T]: 0.254 ± 0.053.
The same measure for KRLCLVCGDIASGYHYGVASCEACKAFFKRTIQGNIEYVCPATNECEITKRRRKSCQACRFMKCLKVGMLKEGVRLD [S39V]: 0.294 ± 0.037; for KRLCLVCGDIASGYHYGVASCEACKAFFKRTIQGNIEYFCPATNECEITKRRRKSCQACRFMKCLKVGMLKEGVRLD [S39F]: 0.374 ± 0.1; for KRLCLVCGDIASGYHYGVASCEACKAFFKRTIQGNIEYACPATNECEITKRRRKSCQACRFMKCLKVGMLKEGVRLD [S39A]: 0.319 ± 0.038.
In the case of KRLCLVCGDIASGYHYGVASCEACKAFFKRTIQGNIEYPCPATNECEITKRRRKSCQACRFMKCLKVGMLKEGVRLD [S39P], the abundance fitness came out at 0.089 ± 0.067.
Regarding KRLCLVCGDIASGYHYGVASCEACKAFFKRTIQGNIEYSDPATNECEITKRRRKSCQACRFMKCLKVGMLKEGVRLD [C40D], the abundance fitness is -0.982 ± 0.37.
KRLCLVCGDIASGYHYGVASCEACKAFFKRTIQGNIEYSMPATNECEITKRRRKSCQACRFMKCLKVGMLKEGVRLD [C40M]: the abundance fitness was -0.742 ± 0.13.
As to KRLCLVCGDIASGYHYGVASCEACKAFFKRTIQGNIEYSVPATNECEITKRRRKSCQACRFMKCLKVGMLKEGVRLD [C40V], the abundance fitness is -0.688 ± 0.082.
With KRLCLVCGDIASGYHYGVASCEACKAFFKRTIQGNIEYSAPATNECEITKRRRKSCQACRFMKCLKVGMLKEGVRLD [C40A] the figure was -0.91 ± 0.12.
